Source: the domain aggregation screens of Martell et al. (2025)

assay: soluble fraction after stress (log2 fold change); higher = more stays soluble; pooled small domains, quantitative proteomics; conditions: stress: pH 4
Procedure, shortened: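 Values are on a log2 scale, where higher means more of the domain stayed soluble after pH 4 stress. They are fold changes in the soluble amount of each domain from pooled custom libraries, measured by high-throughput quantitative proteomics. The fold change is taken to reflect aggregation propensity.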

| Sequence | soluble fraction (log2) |
| --- | --- |
| HMEDEVSSSAAYQALLEKGVSKTLARSWVIDYGEAYVLDKVDLTTSQAARGKIKSSTAGFLKAAIEEDFHN | -0.765 |
| HMTLGARTLAAIQSLPKVQQAVFTMKHFEGLKYREISQITGTSEGALKASYHIALEKIKAFLREK | -0.443 |
| HMGNAQELQKKLEGLKGISGIEKLESDHYAEKYLVRITQPVDHKNPAAGTFTQRVIVAHVGFDRPTILVT | 0.318 |
| HMESKPLTPSEIKKLRMDANMTQAGLAEVLGMTVKAVEAWESGRNIPSGAADKILRVMQKHPSVIGMMQS | 0.247 |
| HMGGKAITGGEGEIIIRADKAETVAIYGIDGRLVHRVSTEAGDTKRVSVPAGIYIVKGAKVVV | 0.42 |
| HMKTMEQSYIGRKIILDENVEDSALIKFEGIYWTFKSVSGPLKKGTEVEIIGIEGNKILIKNK | 0.181 |
| HMSVSVEEDADGRVWVYYQDQKMDITDLFDENGVYGFNLEKGDRTVYVEVTKNADGTYSFTQTD | -1.34 |
| HMLDEKFLSELMLALLRNHRRGLRAEVLLHKVRSNMELDGYKSLLVGVGRMEMWELAREIIDFVKAEG | -2.07 |
| HMTPTVEAAKEEVLRVLASAAPRGLTRTELEAEVSFRRTKLRDTLVELERIGRIDSVGRRGNATTYRLIG | -0.0736 |
| HMEQFDFTILRELRKRAGLSIGEVSAESGVSAAVISKLERNRTRAELDTLYRLARVFGITAAELLNLAEA | -1.76 |
| HMDKPVIEDVSFDDLAYMVGERVIIRTHLRSTRDGELKSFNRAGILVSLRNRPGMELEIPRSTVASAQVVW | -0.744 |
| HMENQMIIYIDENDENKRLDSYLSEITPDYSRSKIQNFIKNGNVTVNDSNKKPSYLLKENDKISFELPQQ | -0.158 |
| HMKIEETLGKTAQVYIPIPQYLSGIGKVTLSVRGSLRELDAMTEEEKIPSNTIVRIVKVQDQVLFVKRA | -0.0641 |
| HMGEPTLTIRVVSYNPQSGEMVVVARDPLSGRYALATLNVRTGAGQMIGPQGELLPIENFALGS | -0.692 |
| HMTKSTLQRQKIIADLIESGNISSQNQLKGLLKKNSLLITQATLSRDLSELGAIKKRQKDGLLVYVLPK | -0.0863 |
| HMVDLLDETLIEFYAFANNLIKDLETNSEKYGGMSQFEKELIFNEQITQYQRKLKIDLQDEVG | -1.39 |
| HMEIDDPWLILGINAGSSIEIAQKAWKDLASQNHPDKLIANGVPKELLGMANEKLAIINGAYDKILKAHKI | -0.792 |
| HMTYQTVRYGSTGSAVRQLQSALNQKGYQLSEDGIFGAKTRAAVRDYQKKNGLLLDGIAGSQTWNHLMS | ≥ 0.43 |
| HMSQIANLLLSKNIKVNNQNIIYYETVLKYLPNNEKKEFFINAMKNNIYFTEEEIKNFGNIFN | -0.786 |
| HMDRRSTTLQDIYTRIDAEEISEALELIPKLGEIEFEQNRAEIAEAAGVRPAVLDKLRKQAAKQENNKK | -0.216 |
| HMGLGQRIKARREALGLSQARLGEAVGVSLQAVSNWERDEYLPDTARLPLIARALGLTPGQLME | 0.11 |
| HMTPSTVQVHVAGAVKNPGVYVLLENARNIDAITAAGGATSEADLERINLSEFIRDGQRVYVPYKGDPI | 0.0384 |
| HMSQIQIKLDQAIMQLPEKQRFVFMLRYFEELPYEKIAQITETSIGGAKANFHQALKKMQEIIQ | -0.397 |
| HMISDISEIEAIIVEVLKVFPNQLQEYLDGKEKILSFFVGQVMQRTKGRANPSLVNEILKEKIKN | -0.417 |
| HMIGKDLLGYEVFSESGDLVGILKDVMWLPHSDVYVITNGGKELLIPVIPEVVKGINHEQGVIVISPM | -1.04 |
| HMTGMEASLSKLLQGEQFADLRKALIDKGIRKLEAFKRLNLWVFMNRNRLYSIGQRQTVYSTLQRALASE | 0.085 |
| HMKNNITFSEFLHEVDNGRVIKVNIQGNNITGILADGKSFNTYTPNDPSLIEKLTSKGVSISATPI | 0.127 |
| HMLSDEEKMAALNEQARQRGFTISPGVLPYLITHYQRDMHSLSMILDALDRYSLQTKRTITLPLLHDLLQQ | -0.228 |
| HMEKYIVEAEEQGKRLDMYISSKDEELTRTSAQRLIEQGDILVNNKKVKVAYKVSEGDIIAVEKQ | 0.00594 |
| HMNPDDEMLLTYLTKLLVDKQFIVNSNDIFEYILRRVDRTYDGIYDIVSKLDVLSLEKKRQLTIPLIKEI | 0.103 |
